Data published in a protein production outcome set (Wang et al. 2014).

Assay: label from the status in PepcDB records

In the case of “MGEEATAVAAAGVRPELVREAEVSLLECKVCFERFGHWQQRRPRNLPCGHVVCLACVAALAHPRTLGLECPFCRRACRACDTSDCLPVLHLLELLGSTLHASPAALSAAPFAPGTLTCYHAFGGWGTLVNPTGLALCPKTGRVVVVHDGKRRVKIFDSGGGGAHQFGEKGDAAHDVKYPLDVAVTNDCHVVVTDAGDCSLKVFDFFGQIKLVVGKQFSLPWGVEITPHNGVLVTDAEAGTLHLLEADFPEGVLRRIERLQAHLCSPRGLAVSWLTGAIAVLEHPCAFGRTGCNNTRVKVFNSTMQLIGQVDSFGLNLLFPSKVTASAVTFDHQGNVIVADTSGPAIVCLGKPEEFPALKPIITHGLSRPVALAFTKENSLLVLDTASHSIKVFKVMEGNGG”, the protein production is reported as “failed”.
In the case of “MSATVPSTASSRAPATTGFRSFLPLIGAVVIWGGNWPVMKMGLAHISPLWFAACRFGSAALISFLVLGALRRLRLPSRQEWPLVIGVGLLQMGAFTALALWALQYVPPGRASVIAYATAIWVIPLSSLVLGERPSRLQWLATAFSYAGIAVIVAPALGGWELHTVMGLTMLLGASLAWSVSIIQLRANRAIRLGADMIPWECAVATVPLIALAWLRDGAPDLGAMVDIWPVIAYTGPLATALTFIVVLNVTQSLPPAATSIAMLGVPVIGLVLSTVAWHEQISLDLSIGLALIGMGVVTTALAPRLGRLAAR”, the protein production is reported as “failed”.
For “MKRWQMEWLLVSVALVWGANYTIGKYGVAYMSSIQFNSLRFLVASPVLLLITFLMERSLRIDRKDWLRLVAVGIVGTTMYQTMFMLSVKYTSATNASLLIAMSPIFTGILAVLHKQERFSMKVQIGSIVAFIGAAFVLLTGHTGGTTYEYAWLGNIIGLVAAIAWGWYPILAQPLITKYSAMRVTSWSTLIGIVPLVVYCLFNVNTLTWPVDMPSWGSLAYSIVFATIFGLAMWYVGISKIGSTKVMVYMYLVPLFAVIFAAVTIGEQINMMQLVGGLIIFIGLYVVKKGGIQKPALNLKKVS”, the protein production was “failed”.
For “MQQIWGSERRRTAIGRMALSVPARQALADRQLVAERTILDYGCGRGDDVRALQQLDCQVVGWDPYYRTDTQLVATDVVLLTYVLNVIEDPAERRQTLKQAWELTSTLLVVSARLTWEKSKVHGEGFGDGLLTSRQTFQHLYATSELREYVEQVTGAR”, the protein production was “failed”.
For “SGCGGSRADAIEPRYYESWTRETESTWLTYTDSDAPPSAAAPDSGPEAGGLHSGMLEDGLPSNGVPRSTAPGGIPNPEKKTNCETQCPNPQSLSSGPLTQKQNGLQTTEAKRDAKRMPAKEVTINVTDSIQQMDRSRRITKNCVN”, the protein production was “failed”.
With “MTESATASRSWHLQATIRRLVLTAFVAGQTGLASWFLLQVLPYHGGNVVEWLIVAVFAVLYLWIAFGFWIAVYGFLLRLLGGDRASLLKRHTPNELAATPLSKTAIVMPLYHEPVSWTLKGLKAIYLDLARSGRLDDFDFYILSDSQDPDVWLQEQQVWLKLVEELGAHGRLFYRRRRVNLNYKSGNVADFLRRWGSQYQYMVVLDADSLLAGDTIRTMVQVMNREPQVGILQTAPTIINARSAFARIQQFANRLYSPLFATGLAAIQMGDAAFWGHNAVIRVAPFMAHCGLPKLKGAGIWQGPIMSHDFVEAAFLGRAGYEVWLEPALGASYEESPPTLDDELARDQRWSKGNLQHAALMLFSPRLRLAHRFAFLNGIMAYASSPLWLLFLVLTTIAAVQLTIAPIDYFPDGRESPFPLWPEWRPTWAITLVVSTMALLFLPKFLAIVDVVAHRTLSGFGGFFRLLCSVLLEIVVSVLLAPIRMLAHSHSVVSALLNVRLSWAGQNRTEETGWREAAVRHLPGLIIGSAWSAFAWTLDPMFFLWSLPVSIPLALAAPTTVWLSRSSSGESLSRRGLLLTPEERTRMPLLDDARGFREEAESEVALTPVEQAVLIPAVNRLHRQLAGRGAKGLKKEVIEGELDACVSRGYRGIEKGRLSLLLEDPQALTALHRRAWSAPSDSFWGQRVRNLVLHAQGLQDL” the protein production was “failed”.
For “MGMKDVFKRYLVFVIGLYFLAAGIVLIVRSALGTTPISSVNYVLSLNSPLSLGTCTFLINMLLILGQFWVIRKNKTRQDTIEILLQLPFSFIFSAFIDFNMALTSNLHPDNYGMSIALLLTGCMIQSIGVVLELKPKVAMMSAEAFVKYASRRYNKEFGKFKVCFDVTLVTLAVILSLLLSQCIEGVREGSLIAACITGYIVSFLNQKIMTRKTLYKLLPVLK”, the protein production was “failed”.
In the case of “MAQIVTSTKSCTVNPLRMSQPLGAALAFMGLRNCMPLLHGSQGCTSFGLVLFVRHFRESIPLQTTAMSEVATVLGGFENVEQAIVNIVGRTKPDVIGICTTGVTEIKGDDLDGYIKMVRANHPELANVALVPVSTPDFKGAFEDGFAATVTRIVETLVETPAEGAAPDADRINVLAGSHLTPGDIDELRDIIEAFGLVPTFLPDISGSLDGHVPDDFTPTTHGGVSVAEVVAMGGAGHTLAFGEHMRKAAAALEAKAGVPFTLLSRVTGLAAADELMATLAKISGRPVPPKYRRQRSQLVDAMLDGHFYFGGKSVAIGAEPDMLLNIGGWLADMGCTVSAAVTTTTSPSLAQVPSDEVLIGDLEDLERRAEDCDLLVTHSHGRQAAERLSVPLFRMGLPMFDRLGAVHQVAVGYRGTRDLIFAIGNLFIANIKEPDVNSWRSASACPDQTDAPAKAH”, the protein production is reported as “failed”.
In the case of “MEPTAPAPTPAATRNTESTAKIVYVLYLLSFAAGITTLIGVVMAYVNEGDAPEGLRTHYRFQIRTFWIGLLYAVVGGLLTIVGIGALILLFVAVWLVIRCVKGLKWLDQRQPVPNPATWLW”, the protein production is reported as “failed”.
With “MLTKLGIKGRELLLTILPASLMAAMLGGYFTWMQLSELQSQLLLRGEMIAQDLAPLSASALGRKDKVLLSRIATQTLEQPDVRAVSFLDVDRSPLAHAGPTMISPTPIGNSSQLLNSTGTDATRYLLPVFGNQRHLTSPIIPAEADTLMGWVDVEISHNGTLLRGYRSLFASLLLIFTGLAITAVVAVRLSRTINGPMSQIKQAVSQLKDGNLETRLPPLGSRELDELASGINRMAATLQNAQEELQMSIDQATEDVRQNLETIEIQNIELDLARKEALEASRIKSEFLANMSHEIRTPLNGILGFTHLLQKSELTPRQFDYLATIEKSADNLLSIINEILDFSKIEAGKLVLDNIPFNLRDLLQDTLTILAPAAHAKHLELVSLVYRDTPLALSGDPLRLRQILTNLVSNAIKFTREGTIVARAMLEDETEEHAQLRISVQDTGIGLSSQDVRALFQAFSQADNSLSRQPGGTGLGLVISKRLIEQMGGEIGVDSTPGEGSEFWISLKLPKAREDKEESLNLPLEGLRAAVLEHHDLARQALEHQLEDCGLHTVVFTNLENLLNGVTAAHETPAAIDLAVLGVTTLEISPERLRQHIWDLENLNCKVMVLCPTTEYALFQLAVHDVYTQLQAKPACTRKLQKALSELIAPRAIRADIAPPLSSRAPRVLCVDDNPANLLLVQTLLEDMGAEVMAVEGGYAAVNAVQQEAFDLVLMDVQMPGMDGRQATEAIRAWEAERGQSSLPIVALTAHAMANEKRSLLQSGMDDYLTKPISERQLAQVVLKWSGLALRNPAPERQNESLEAHVGPLVLDPEEGLRLAAGKADLAADMLAMLLASLDADREAIRVARASQDVQALIERIHRLHGATRYCGVPQLRTACQRAETLLKQDAPHTGDALDDLDKAIVRLETEARVTA” the protein production was “failed”.
In the case of “MRLSKEFIGLGIITASLIFGSSLPDIYKGIVILIVAGCLWFFELLPLPVTSLAIPIMAVFLGIFNLKEALTYFAHPIIFLFLGGFMLAQALKNHNLDKFIAYKLLNYGKDFKTTCFLMFLSAYFLSMWISNTSATLILLPIALGLLHKKTGKLRDFLLLGVAYSASIGGIATIIGSPPNAIASSYLDYGFFSWFKVGFPISLLLFLICTLTLYIYFKKWIPKEDIAIQARMELSRNAYKLLVIFVLIASLWIISDYLSEIFNVQYFDSVIAIFAIILLFVFNLVEVNDFKKIDWGTLILFGGALCLGGVIVKSGANTFLSEKLIAILGNLTPIVLLFLVVTITIILTNFISNTGLTGIIVPILFGVSLGIPKEILILAVGMSASCSFILPVGTPPNAIVYSEGVKKEEMMKIGMILSILSAAVITLYSILYL”, the protein production is reported as “failed”.
With “MSEVSVLLLAVILDLLIGEPPHRLHPVVWMGSAVEWMRNILGNSRISGIILTIAVAAPFTLPLFLINHLQDPLNLIISSILLSAVISIRMLVTSALEVGGSLKEDIEDARRKLSMLVSRDTTSLSDEQITSAAIETLTENITDSVTAPIFYFILLGLPGAFLYRVVNTLDAMVGYLDSENRDIGWFPARLDDILNYIPSRITGVLMVPAALLLGMNWRGSFRILLRDARRTPSPNSGFTMAAAAGALSVQLEKPGVYVLGDPCDGLDNEKLLDAVKLSSLTLILFTLAAAGVMLVIP” the protein production was “failed”.
For “MTDTQNRVAMGYIKGVFGIKGWLKIAANTEYSDSLLDYPEWHLVKDGKTISVTLEAGKVVNGELQVKFEGINDRDLAFSLRGYTIEIPREAFAPTEEDEYYWTDLVGMTVVNKDHTVLGKVSNLMETGANDVLMIDGEHGQILIPFVSQYIETVDTGSKTITADWGLDYLEHHHHHH”, the protein production was “not failed”.
In the case of “TSLEEITKAIMADSQNKVFTEKNIEPLFAAPKTARINIVGQAPGIKAQESRLYWNDKSGDRLREWMGVDYDTFYHSGYFAVIPMDFYYPGKGKSGDLPPRKGFAQKWHQPILDLLPDIQLTILIGNYAQKYYLHQKSSVKLTDTVAHYKKYLPDYFPLVHPSPRNQIWMSRHPWFEAQVVPDLKKIIQQIIQSS”, the protein production is reported as “not failed”.
With “MVRLLHVSFVSHGAAWLPIHSCTGSHGQCERRAAGGPEAWATTPSLAAMPIDTRARQPSCDNRVMNDAALAPDVSAALERGLQAQSLDTAFAAPLLRYLALLVRWNKTYNLTAVRDPRAMVTRHLLDSLAMQPYIASGMLADLGTGPGLPGIPLAITRPQLQVTLVESNGKKARFMREALRHLELRNARVAESRAEALDEPTAYDHLTARALDTLAGIIAVGGHLLRPGGSLLAMKGIYPHEEIAALPEGWTMSEVHQLQVPGLDGERHLVVVRKA” the protein production was “failed”.
In the case of “MVLARAPEPHGGGNRLNSATMRVYLGKTHKHPHQNRRHTVSDISDYIVSHFKRSSREIGEVERRILELSHQKKLVSSDINAEFSAGASLGDRLADNIAKVGGSWGFILSFCFFLIFWAIINTIVLTTRAFDPYPFIFLNLLLSMLAAIQAPIIMMSQNRQAARDRFEAAKDYEVNLKAELEVLSLHEKIDVKVLAELAALRQDIAAIHHHVTRKDD”, the protein production is reported as “failed”.
For “SGTFDSQCHECFESKERWYEIGPTDLLERKGSLTLRSHHKKYSEPVLVYSWHRNREAFPKDYDIESLETVKNLCMSTYKRFGSDSPRWMSEAREQMAQVLVNKDLVEKKKTGLLDEETLCPGILERDPELPPTGFRDVPMESPPDPRKPCFSTTYSEDFTPQYEYPPPACPRREEYSIVHRKCRSQFTDLNGSKRLGINTWHDESGIYANSEAKQKLYALARNPIVPF”, the protein production was “failed”.
In the case of “MSHTEAATVHSTAPASHPVRIALIGAGRIGSNHAEIVARLVPGASLVAVSDPVGESAQRLATTLGASLATTTVDDVLTSDEVDAVLITAPARSHTDLVVAAAAAGKHVFVEKPMAVTLADADRAIAAAADAGIVLQVGFNRRFAPGFAAARAAIDAQKVGAPQLLRSLTRDPGPYTADPARVPQWTIFLETLIHDFDTLCFLNPDARPVRVHAVADALVRPDAKGAGHLDTAVVTVQFDNGAIATAEASFSALYGYDVRAEVFGSGGMITAGSGLSTDMTYYGPDGMHADTARRDTDLLHSAYLGELTAFVDAIRTHTPAVVTGQDARTALSIALAAIRSVETGSAVDLDG”, the protein production is reported as “failed”.
